Data on one molecule can be found in patent US20050065082A1 (published 2005).

Experiment [1] deals with T1, GST-BPL1 (N-terminal GST fusion protein of human BPL1, holocarboxylase synthetase) (human, UniProt P50747 1-726).
T1 construct: Expressed in E. coli BL21; not shown: glutathione S-transferase (GST) tag encoded by the pGEX-4T vector (Amersham Pharmacia Biotech), N-terminal
T1 sequence: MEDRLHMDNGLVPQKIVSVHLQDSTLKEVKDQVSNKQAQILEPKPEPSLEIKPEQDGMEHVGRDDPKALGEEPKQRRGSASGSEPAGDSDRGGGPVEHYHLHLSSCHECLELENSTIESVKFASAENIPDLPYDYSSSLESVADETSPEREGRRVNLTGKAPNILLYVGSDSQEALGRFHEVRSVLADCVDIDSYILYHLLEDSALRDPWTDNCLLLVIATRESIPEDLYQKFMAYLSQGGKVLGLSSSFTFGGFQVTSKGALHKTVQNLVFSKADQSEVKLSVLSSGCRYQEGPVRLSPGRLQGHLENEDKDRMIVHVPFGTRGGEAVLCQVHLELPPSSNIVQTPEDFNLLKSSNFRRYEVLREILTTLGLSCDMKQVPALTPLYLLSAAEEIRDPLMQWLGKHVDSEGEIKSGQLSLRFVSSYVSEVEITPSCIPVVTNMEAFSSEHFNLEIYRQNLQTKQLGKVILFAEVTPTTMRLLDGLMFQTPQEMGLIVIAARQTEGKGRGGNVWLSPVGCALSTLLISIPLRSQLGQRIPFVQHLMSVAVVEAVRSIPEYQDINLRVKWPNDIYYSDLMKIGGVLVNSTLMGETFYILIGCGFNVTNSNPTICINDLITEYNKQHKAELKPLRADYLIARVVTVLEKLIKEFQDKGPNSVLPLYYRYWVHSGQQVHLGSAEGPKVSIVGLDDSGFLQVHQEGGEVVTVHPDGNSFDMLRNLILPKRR
Briefly: not described, Example 4 holds only kinase assays.

Experiment [2] addresses T2, GST-BMAL1 (N-terminal GST fusion protein of human BMAL1; BMAL1b was used) (human, UniProt O00327 1-626).
T2 construct: Expressed in E. coli BL21; not shown: glutathione S-transferase (GST) tag encoded by the pGEX-4T vector (Amersham Pharmacia Biotech), N-terminal
The experiment in a line: not described, Example 3 holds only kinase assays.

T2 sequence (O00327 whole entry, the tested form may be a part): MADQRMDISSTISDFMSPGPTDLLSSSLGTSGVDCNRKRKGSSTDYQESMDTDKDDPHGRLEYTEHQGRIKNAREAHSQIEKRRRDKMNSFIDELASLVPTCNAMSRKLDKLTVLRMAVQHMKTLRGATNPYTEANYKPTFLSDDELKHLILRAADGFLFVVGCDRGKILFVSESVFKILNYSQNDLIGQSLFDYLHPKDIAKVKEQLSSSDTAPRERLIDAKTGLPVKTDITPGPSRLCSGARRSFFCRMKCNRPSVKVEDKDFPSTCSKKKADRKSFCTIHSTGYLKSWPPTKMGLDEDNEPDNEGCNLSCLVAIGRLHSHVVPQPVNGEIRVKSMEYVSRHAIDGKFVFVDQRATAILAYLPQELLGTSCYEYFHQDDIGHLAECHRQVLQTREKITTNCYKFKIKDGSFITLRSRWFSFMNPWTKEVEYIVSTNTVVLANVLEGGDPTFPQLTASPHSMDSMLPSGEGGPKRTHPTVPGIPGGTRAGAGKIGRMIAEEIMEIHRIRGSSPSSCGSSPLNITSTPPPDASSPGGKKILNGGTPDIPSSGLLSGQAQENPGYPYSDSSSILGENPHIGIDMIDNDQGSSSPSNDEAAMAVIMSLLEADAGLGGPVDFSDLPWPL

B1: His-JNK3 (activated human JNK3 (JNK3α1) with an N-terminal histidine-tag) (enzyme, UniProt P53779-2 1-422, looked up)
chain: MSLHFLYYCSEPTLDVKIAFCQGFDKQVDVSYIAKHYNMSKSKVDNQFYSVEVGDSTFTVLKRYQNLKPIGSGAQGIVCAAYDAVLDRNVAIKKLSRPFQNQTHAKRAYRELVLMKCVNHKNIISLLNVFTPQKTLEEFQDVYLVMELMDANLCQVIQMELDHERMSYLLYQMLCGIKHLHSAGIIHRDLKPSNIVVKSDCTLKILDFGLARTAGTSFMMTPYVVTRYYRAPEVILGMGYKENVDIWSVGCIMGEMVRHKILFPGRDYIDQWNKVIEQLGTPCPEFMKKLQPTVRNYVENRPKYAGLTFPKLFPDSLFPADSEHNKLKASQARDLLSKMLVIDPAKRISVDDALQHPYINVWYDPAEVEAPPPQIYDKQLDEREHTIEEWKELIYKEVMNSEEKTKNGVVKGQPSPSAQVQQ
notes: Expressed in Sf9 cells by recombinant baculovirus, purified with Probond Resin; not shown: N-terminal His-tag and vector residues of pFastBac HT
Take B1: the binding result in experiment [1] and in experiment [2] was “binds” in each case.
